B1: recombinant human CD32a extracellular domain with C-terminal His-tag, biotinylated (H167R) (receptor)
chain: QAAAPPKAVLKLEPPWINVLQEDSVTLTCQGARSPESDSIQWFHNGNLIPTHTQPSYRFKANNNDSGEYTCQTGQTSLSDPVHLTVLSEWLVLQTPHLEFQEGETIMLRCHSWKDKPLVKVTFFQNGKSQKFSRLDPTFSIPQANHSHSGDYHCTGNIGYTLFSSKPVTITVQVPSMGSSSPMG
notes: also called CD32a-His; recombinant CD32a protein; not shown: C-terminal His-tag
B2: DARPin 53.A8 (designed binder)
chain: DLGKKLLEATRAGQDDEVRILMANGANVNATDEEGLTPLHLAALDGHLEIVEVLLKYGADVNADDMHGPTPLHLAAYAGHLEIVEVLLKYGADVNAYDCGGHTPLHLAARLGHLEIVEVLLKYGADVNAQDKFGKTPFDLAIDNGNEDIAEVLQKAA

Tests used:
Test in all cases: SPR, Biacore T200, biotinylated CD32a on neutravidin chip, DARPin as analyte
DARPin 53.C8 = biological target: DARPin 53.C8
DARPin 53.2.F11 = biological target: DARPin 53.2.F11
DARPin 53.H3 = biological target: DARPin 53.H3
DARPin 53.D8 = biological target: DARPin 53.D8
DARPin 53.2F11[TEV] = biological target: DARPin 53.2F11[TEV]
DARPin 52.H6 = biological target: DARPin 52.H6
[1] = biological target: B1

Measured: Kd

B1
not listed: [1]
< 2 nM: all other assays above

B2
< 2 nM: [1]

From US20250101071A1 (PAUL EHRLICH INSTITUT BUNDESINSTITUT F R IMPFSTOFFE UND …, published 2025)
